Sequences and labels used below:
B1: ZNF449 (parent)
chain: RIHSGEEPHKCPECGKRFLRSSDL
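Also: lentivirally expressed fusions sorted by FACS into six bins by GFP to DsRed ratio, PSI derived from sequencing read proportions per bin multiplied by bin number.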

Variants of B1 are the subject of this data set. The data set is described as follows: protein stability index of a GFP-peptide fusion (GPS, HEK-293T) (PSI 1-6); higher = more stable. Conditions: c terminus: a fixed tail appended.
With RIHSGEEPLKCPECGKRFLRSSDL [H9L], the protein stability index worked out at 2.19. Next, RIHSGEEPTKCPECGKRFLRSSDL [H9T]: 3.44.

Take RIHSGEEPCKCPECGKRFLRSSDL [H9C]: the protein stability index stood at 4.35. Next, RIHSGEEPFKCPECGKRFLRSSDL [H9F]: 3.95; RIHSGEEPYKCPECGKRFLRSSDL [H9Y]: 3.48. For RIHSGEEPPKCPECGKRFLRSSDL [H9P] the value was 3.2; for RIHSGEEPQKCPECGKRFLRSSDL [H9Q], 3.19; for RIHSGEEPKKCPECGKRFLRSSDL [H9K], 3.83.

As for RIHSGEEPGKCPECGKRFLRSSDL [H9G], the protein stability index stood at 2.99. For RIHSGEEPAKCPECGKRFLRSSDL [H9A] the value was 3.42; for RIHSGEEPSKCPECGKRFLRSSDL [H9S], 3.28.

In the case of RIHSGEEPIKCPECGKRFLRSSDL [H9I], the protein stability index amounted to 4.09. Next, RIHSGEEPRKCPECGKRFLRSSDL [H9R]: 3.18; RIHSGEEPDKCPECGKRFLRSSDL [H9D]: 3.5; RIHSGEEPWKCPECGKRFLRSSDL [H9W]: 2.73. For RIHSGEEPVKCPECGKRFLRSSDL [H9V] the value was 4.15; for RIHSGEEPMKCPECGKRFLRSSDL [H9M], 3.42; for RIHSGEEPEKCPECGKRFLRSSDL [H9E], 3.78.

With RIHSGEEPHKYPECGKRFLRSSDL [C11Y], the protein stability index was 4.21. Regarding RIHSGEEPHKSPECGKRFLRSSDL [C11S], the protein stability index came out at 3.72.

For the variant RIHSGEEPHKHPECGKRFLRSSDL [C11H], the protein stability index came out at 4.41. Next, RIHSGEEPHKAPECGKRFLRSSDL [C11A]: 4.32; RIHSGEEPHKLPECGKRFLRSSDL [C11L]: 4.11; RIHSGEEPHKDPECGKRFLRSSDL [C11D]: 4.17.

Regarding RIHSGEEPHKFPECGKRFLRSSDL [C11F], the protein stability index came to 3.54. Next, RIHSGEEPHKWPECGKRFLRSSDL [C11W]: 3.79; RIHSGEEPHKNPECGKRFLRSSDL [C11N]: 4.57. For RIHSGEEPHKTPECGKRFLRSSDL [C11T] the value was 4.17; for RIHSGEEPHKMPECGKRFLRSSDL [C11M], 4.35; for RIHSGEEPHKKPECGKRFLRSSDL [C11K], 4.5. Next, RIHSGEEPHKPPECGKRFLRSSDL [C11P]: 4.23; RIHSGEEPHKIPECGKRFLRSSDL [C11I]: 4.51. Regarding RIHSGEEPHKRPECGKRFLRSSDL [C11R], the protein stability index was found to be 4.32. Take RIHSGEEPHKVPECGKRFLRSSDL [C11V]: the protein stability index amounted to 4.19. For RIHSGEEPHKCVECGKRFLRSSDL [P12V] the value was 3.5; for RIHSGEEPHKCGECGKRFLRSSDL [P12G], 3.08. Next, RIHSGEEPHKCTECGKRFLRSSDL [P12T]: 3.76; RIHSGEEPHKCCECGKRFLRSSDL [P12C]: 3.32. Next, RIHSGEEPHKCEECGKRFLRSSDL [P12E]: 4.41; RIHSGEEPHKCSECGKRFLRSSDL [P12S]: 3.66; RIHSGEEPHKCQECGKRFLRSSDL [P12Q]: 3.33.

RIHSGEEPHKCNECGKRFLRSSDL [P12N]: the protein stability index was 4.18. For RIHSGEEPHKCAECGKRFLRSSDL [P12A] the value was 3.15; for RIHSGEEPHKCDECGKRFLRSSDL [P12D], 4.36.

As for RIHSGEEPHKCMECGKRFLRSSDL [P12M], the protein stability index was found to be 3.36.

RIHSGEEPHKCHECGKRFLRSSDL [P12H]: the protein stability index worked out at 3.24. For RIHSGEEPHKCWECGKRFLRSSDL [P12W] the value was 2.05; for RIHSGEEPHKCLECGKRFLRSSDL [P12L], 3.23; for RIHSGEEPHKCRECGKRFLRSSDL [P12R], 2.92. Next, RIHSGEEPHKCIECGKRFLRSSDL [P12I]: 2.94; RIHSGEEPHKCFECGKRFLRSSDL [P12F]: 3.29. Consider RIHSGEEPHKCYECGKRFLRSSDL [P12Y], for which the protein stability index was determined as 3.12. For RIHSGEEPHKCKECGKRFLRSSDL [P12K] the value was 3.2; for RIHSGEYPHKCPECGKRFLRSSDL [E7Y], 2.71; for RIHSGEENHKCPECGKRFLRSSDL [P8N], 3. With RIHSGEETHKCPECGKRFLRSSDL [P8T], the protein stability index was 3.45. Next, RIHSGEEFHKCPECGKRFLRSSDL [P8F]: 2.44; RIHSGEELHKCPECGKRFLRSSDL [P8L]: 3.41. Next, RIHSGEEEHKCPECGKRFLRSSDL [P8E]: 3.44; RIHSGEEQHKCPECGKRFLRSSDL [P8Q]: 4.29. RIHSGEECHKCPECGKRFLRSSDL [P8C]: the protein stability index worked out at 3.19. Next, RIHSGEESHKCPECGKRFLRSSDL [P8S]: 3.25.

As for RIHSGEEAHKCPECGKRFLRSSDL [P8A], the protein stability index worked out at 3.64. Next, RIHSGEEMHKCPECGKRFLRSSDL [P8M]: 3.34.

As to RIHSGEEHHKCPECGKRFLRSSDL [P8H], the protein stability index came to 3.18. For the variant RIHSGEEKHKCPECGKRFLRSSDL [P8K], the protein stability index was found to be 2.51. For RIHSGEEIHKCPECGKRFLRSSDL [P8I] the value was 4.26; for RIHSGEEWHKCPECGKRFLRSSDL [P8W], 3.72; for RIHSGEEDHKCPECGKRFLRSSDL [P8D], 4.1. Next, RIHSGEEYHKCPECGKRFLRSSDL [P8Y]: 3.57. As to RIHSGEEPHKCPECGKRCLRSSDL [F18C], the protein stability index was 4.15. For RIHSGEEPHKCPECGKRKLRSSDL [F18K] the value was 4.33; for RIHSGEEPHKCPECGKRILRSSDL [F18I], 3.22; for RIHSGEEPHKCPECGKRDLRSSDL [F18D], 4.4. In the case of RIHSGEEPHKCPECGKRLLRSSDL [F18L], the protein stability index worked out at 2.86.

Take RIHSGEEPHKCPECGKRELRSSDL [F18E]: the protein stability index came to 4.56.

With RIHSGEEPHKCPECGKRALRSSDL [F18A], the protein stability index came out at 5.36. Next, RIHSGEEPHKCPECGKRMLRSSDL [F18M]: 3.32; RIHSGEEPHKCPEFGKRFLRSSDL [C14F]: 3.47; RIHSGEEPHKCPEWGKRFLRSSDL [C14W]: 4.39. For RIHSGEEPHKCPERGKRFLRSSDL [C14R], the protein stability index is 4.32. For the variant RIHSGEEPHKCPEHGKRFLRSSDL [C14H], the protein stability index stood at 3.95. On to RIHSGEEPHKCPESGKRFLRSSDL [C14S], for which the protein stability index was found to be 4.77.

Regarding RIHSGEEPHKCPEYGKRFLRSSDL [C14Y], the protein stability index stood at 3.6.

Regarding RIHSGEEPHKCPEGGKRFLRSSDL [C14G], the protein stability index stood at 4.65. For RIHSGEEPHKCPEMGKRFLRSSDL [C14M] the value was 4.21; for RIHSGEEPHKCPEAGKRFLRSSDL [C14A], 4.26; for RIHSGEEPHKCPEVGKRFLRSSDL [C14V], 4.21. For RIHSGEEPHKCPEQGKRFLRSSDL [C14Q] the value was 4.96; for RIHSGEEPHKCPEEGKRFLRSSDL [C14E], 5.1; for RIHSGEEPHKCPEIGKRFLRSSDL [C14I], 5.

As for RIHSGEEPHKCPENGKRFLRSSDL [C14N], the protein stability index is 4.3. For RIHSGEEPHKCPEKGKRFLRSSDL [C14K] the value was 3.87.

Regarding RIHSGEEPHKCPELGKRFLRSSDL [C14L], the protein stability index was 3.79.
